Measurements from patent US20160017348A1.

Molecular target: unmodified H3 peptide (UniProt P59226)
Assay: ITC; FIG. 3A

SHH1 SAWADEE domain (residues 125-258), sequence (Q9XI47 125-258): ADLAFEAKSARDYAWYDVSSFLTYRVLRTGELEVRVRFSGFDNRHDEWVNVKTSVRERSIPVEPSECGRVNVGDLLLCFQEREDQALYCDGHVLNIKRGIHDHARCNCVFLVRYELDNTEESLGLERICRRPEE

Substance “SHH1 SAWADEE domain (residues 125-258) (from UniProt Q9XI47 125-258)” has a Kd of 34.8 µM.
